Experimental data: PMC4718636

Target: hAgo2 (Homo sapiens), Q9UKV8
Experiment: cleavage activity titration
Settings: siRNA-bound hAgo2; remark: other sources report otherwise

hAgo2 (Homo sapiens), Q9UKV8, sequence (Q9UKV8 whole entry): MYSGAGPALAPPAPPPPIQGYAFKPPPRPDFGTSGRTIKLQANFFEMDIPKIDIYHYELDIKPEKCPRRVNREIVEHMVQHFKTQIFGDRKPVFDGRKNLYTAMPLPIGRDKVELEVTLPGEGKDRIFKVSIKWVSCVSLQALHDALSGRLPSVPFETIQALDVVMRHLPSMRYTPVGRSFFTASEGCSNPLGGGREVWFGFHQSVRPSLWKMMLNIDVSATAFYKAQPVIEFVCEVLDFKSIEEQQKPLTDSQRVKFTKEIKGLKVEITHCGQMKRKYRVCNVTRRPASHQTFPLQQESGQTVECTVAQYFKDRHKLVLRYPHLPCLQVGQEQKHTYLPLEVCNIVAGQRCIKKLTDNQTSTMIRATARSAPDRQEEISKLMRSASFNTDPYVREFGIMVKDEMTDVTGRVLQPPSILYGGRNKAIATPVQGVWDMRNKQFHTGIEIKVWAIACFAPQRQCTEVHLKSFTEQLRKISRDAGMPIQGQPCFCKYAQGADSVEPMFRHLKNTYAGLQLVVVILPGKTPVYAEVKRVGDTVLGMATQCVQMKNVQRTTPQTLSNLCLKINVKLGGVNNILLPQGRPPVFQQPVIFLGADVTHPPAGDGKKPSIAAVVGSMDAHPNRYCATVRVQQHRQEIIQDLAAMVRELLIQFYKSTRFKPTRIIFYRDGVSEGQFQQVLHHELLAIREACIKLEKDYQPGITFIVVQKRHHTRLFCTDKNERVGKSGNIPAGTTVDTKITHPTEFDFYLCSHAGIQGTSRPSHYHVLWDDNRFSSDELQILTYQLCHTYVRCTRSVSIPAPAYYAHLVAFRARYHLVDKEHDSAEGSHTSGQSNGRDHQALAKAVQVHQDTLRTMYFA

Kd: 2 µM
B1: hTRBP, Q15633 (protein)
chain: MSEEEQGSGTTTGCGLPSIEQMLAANPGKTPISLLQEYGTRIGKTPVYDLLKAEGQAHQPNFTFRVTVGDTSCTGQGPSKKAAKHKAAEVALKHLKGGSMLEPALEDSSSFSPLDSSLPEDIPVFTAAAAATPVPSVVLTRSPPMELQPPVSPQQSECNPVGALQELVVQKGWRLPEYTVTQESGPAHRKEFTMTCRVERFIEIGSGTSKKLAKRNAAAKMLLRVHTVPLDARDGNEVEPDDDHFSIGVGSRLDGLRNRGPGCTWDSLRNSVGEKILSLRSCSLGSLGALGPACCRVLSELSEEQAFHVSYLDIEELSLSGLCQCLVELSTQPATVCHGSATTREAARGEAARRALQYLKIMAGSK
